Measured values as given in the Human Domainome abundance scans (Beltran et al. 2025).
± gives the uncertainty stated by the source.

B1: Connector enhancer of kinase suppressor of ras 2, residues 9 to 71; numbered along this chain, Q8WXI2 (parent)
chain: SKWSPSQVVDWMKGLDDCLQQYIKNFEREKISGDQLLRITHQELEDLGVSRIGHQELILEAVD

Variants of: B1
Test: abundance fitness (aPCA) (normalised: wild type 0, dead -1); higher = more abundant; growth selection in yeast, the domain comes from the species named
Settings: Homo sapiens

Variant	abundance fitness
H54W	-1.27 ± 0.17
H54G	-0.887 ± 0.056
H54I	-1.15 ± 0.14
H54F	-0.886 ± 0.1
H54Q	-0.944 ± 0.093
H54M	-0.819 ± 0.052
H54S	-0.766 ± 0.039
H54Y	-0.863 ± 0.081
Q7L	-0.743 ± 0.033
Q7C	-0.574 ± 0.042
Q7F	-0.713 ± 0.064
Q7Y	-0.777 ± 0.068
Q7T	-0.488 ± 0.035
Q7S	-0.45 ± 0.033
Q7I	-0.748 ± 0.075
Q35P	-0.903 ± 0.074
Q35K	-0.054 ± 0.057
Q35E	-0.172 ± 0.057
Q35L	-0.392 ± 0.039
Q35V	-0.19 ± 0.037
Q35F	-0.33 ± 0.058
Q35W	-0.523 ± 0.055
I39T	-0.455 ± 0.042
I39D	-0.569 ± 0.075

Variant	abundance fitness
I39Q	-0.653 ± 0.032
I39S	-0.537 ± 0.037
I39L	0.01 ± 0.026
I39R	-0.717 ± 0.03
S32G	-0.074 ± 0.022
S32H	-0.361 ± 0.082
S32P	-0.624 ± 0.053
S32V	-0.475 ± 0.037
S32W	-0.322 ± 0.028
S32F	-0.493 ± 0.041
S32I	-0.589 ± 0.086
M12D	-0.706 ± 0.05
M12S	-0.8 ± 0.051
M12L	-0.188 ± 0.028
M12H	-0.766 ± 0.048
M12F	-0.096 ± 0.035
M12G	-0.757 ± 0.037
Y22A	-0.863 ± 0.035
Y22Q	-0.636 ± 0.062
Y22G	-0.702 ± 0.027
Y22T	-0.653 ± 0.035
Y22V	-0.806 ± 0.034
D10L	-0.256 ± 0.017
D10V	-0.327 ± 0.028

Variant	abundance fitness
D10S	-0.127 ± 0.034
Q55C	-0.403 ± 0.043
Q55D	-0.978 ± 0.093
I58Y	-1.35 ± 0.46
I58W	-0.734 ± 0.18
I58Q	-0.696 ± 0.092
I58F	-0.033 ± 0.085
I58T	-0.688 ± 0.11
I58G	-0.945 ± 0.24
I58P	-0.671 ± 0.085
K13S	-0.179 ± 0.027
K13F	-0.375 ± 0.045
K13P	-0.895 ± 0.075
K13N	-0.212 ± 0.055
K13C	-0.356 ± 0.041
K13T	-0.237 ± 0.046
K13H	-0.13 ± 0.065
D34N	-0.087 ± 0.039
D34K	-0.056 ± 0.057
D34H	-0.168 ± 0.071
D34Q	-0.031 ± 0.052
D34G	-0.109 ± 0.03
D34T	-0.118 ± 0.037
L59C	-0.557 ± 0.048

Variant	abundance fitness
L59D	-0.594 ± 0.042
L59E	-0.672 ± 0.041
L59Y	-0.61 ± 0.055
L59T	-0.607 ± 0.038
L59P	-0.608 ± 0.075
L59H	-0.657 ± 0.068
E43G	-0.131 ± 0.034
E43Y	-0.472 ± 0.044
E43H	-0.179 ± 0.049
E43S	-0.137 ± 0.026
E43V	-0.257 ± 0.036
E43W	-0.498 ± 0.04
L44D	-0.657 ± 0.065
L44A	-0.814 ± 0.046
L44Y	-0.9 ± 0.086
L44T	-0.781 ± 0.05
G33S	-0.668 ± 0.04
G33M	-0.236 ± 0.046
G33D	-0.906 ± 0.067
G33N	-0.947 ± 0.12
G53F	-0.079 ± 0.026
G53R	0.046 ± 0.027
G53K	0.077 ± 0.037
G53D	0.086 ± 0.042

Variant	abundance fitness
G53A	0.037 ± 0.033
S6W	-0.291 ± 0.04
S6Q	-0.003 ± 0.032
S6G	-0.052 ± 0.027
S6C	-0.195 ± 0.037
S6M	-0.043 ± 0.031
L19P	-0.602 ± 0.044
L19T	-0.508 ± 0.036
L19M	-0.2 ± 0.044
L19H	-0.568 ± 0.061
V49E	-0.903 ± 0.054
V49A	-0.833 ± 0.044
V49Q	-0.846 ± 0.065
V49I	-0.088 ± 0.049
V49K	-0.925 ± 0.037
V49Y	-1.07 ± 0.11
L57A	-0.105 ± 0.026
L57M	0.035 ± 0.04
L57E	-0.446 ± 0.034
L57C	-0.394 ± 0.051
L57Y	-0.53 ± 0.051
L57G	-0.635 ± 0.043
L57R	-0.202 ± 0.027
L57W	-0.987 ± 0.066

Variant	abundance fitness
E45P	-0.784 ± 0.052
E45G	-0.12 ± 0.029
E45S	-0.017 ± 0.02
E45V	-0.118 ± 0.028
D63I	-0.274 ± 0.063
D63Y	-0.096 ± 0.051
D63N	-0.024 ± 0.06
D63L	-0.176 ± 0.063
D63T	-0.055 ± 0.057
D63Q	-0.039 ± 0.24
G14S	-0.005 ± 0.027
G14Q	-0.196 ± 0.047
G14L	-0.579 ± 0.031
Q42R	-0.03 ± 0.024
Q42D	-0.348 ± 0.046
Q42P	-0.254 ± 0.035
Q42L	-0.378 ± 0.025
Q42T	-0.118 ± 0.028
K30D	-0.225 ± 0.035
K30S	-0.087 ± 0.027
K30A	-0.069 ± 0.027
K30E	-0.105 ± 0.038
K30M	-0.113 ± 0.041
K30Y	-0.391 ± 0.053

Variant	abundance fitness
K30T	-0.419 ± 0.04
K30W	-0.572 ± 0.063
K30G	-0.048 ± 0.026
V9M	-0.159 ± 0.038
V9P	-0.888 ± 0.073
V9Q	-0.217 ± 0.044
D16Q	-0.293 ± 0.042
D16R	-0.631 ± 0.025
D16G	-0.466 ± 0.028
D16Y	-0.667 ± 0.035
D16M	-0.669 ± 0.056
D16I	-0.615 ± 0.038
D16K	-0.632 ± 0.038
D16N	-0.311 ± 0.033
D16W	-0.527 ± 0.031
D16P	-0.047 ± 0.026
D16F	-0.512 ± 0.031
D16S	-0.402 ± 0.022
D16A	-0.408 ± 0.034
D16E	-0.266 ± 0.044
E29S	-0.043 ± 0.033
E29R	-0.025 ± 0.023
E29Q	-0.005 ± 0.035
